Assay results from the supplement of paper PMC9170038.

How the values were obtained:
MS2 coat protein [1] = assay: apparent KD of MS2 coat protein; higher = weaker reporter binding; conditions: Eterna round: R101
Description: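 RNA-MaP: designed FMN/MS2 RNA switches (84 nt design region) are transcribed on-chip within common flanks and titrated with SNAP-549-labelled MS2 coat protein (about 1-3000 nM) in 100 mM Tris pH 7.5, 80 mM KCl, 4 mM MgCl2, without or with 200 uM FMN. Median apparent KD per design; activation ratio = KD,OFF / KD,ON.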

MS2 coat protein [2] = assay: apparent KD of MS2 coat protein, switch ON state; designed switch direction (-1 OFF switch, 1 ON switch): 1; higher = weaker reporter binding; conditions: FMN input: 0 or 200 uM; Eterna round: R93 (includes R88 designs)
Summary of the method: (§1)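 Designed RNA switches were transcribed on-chip from Illumina sequencing clusters and titrated with SNAP-549-labelled MS2 coat protein in twofold steps from 0.7 or 1.5 nM up to 3 µM. Each step lasted 0.8–1.5 h at first and 10–20 min by the end, in 100 mM Tris-HCl pH 7.5, 80 mM KCl and 4 mM MgCl2, without or with constant ligand. Apparent KD is the median, for each design, of fits to normalised cluster binding curves.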

MS2 coat protein [3] = assay: apparent KD of MS2 coat protein, switch OFF state (with FMN for OFF switches, without FMN for ON switches); designed switch direction (-1 OFF switch, 1 ON switch): 1; higher = weaker reporter binding; conditions: FMN input: 0 or 200 uM; Eterna round: R93 (includes R88 designs)
Summary of the method: as §1

| Sequence | apparent KD of MS2 coat protein (MS2 coat protein [1]; input ligand: FMN 200 uM) [µM] | apparent KD of MS2 coat protein (MS2 coat protein [1]; input ligand: none) [µM] | apparent KD of MS2 coat protein (MS2 coat protein [2]) [µM] | apparent KD of MS2 coat protein (MS2 coat protein [3]) [µM] |
| --- | --- | --- | --- | --- |
| GACUGCAGGAUAACAACCUGCAGUCACUUCUGAGGAUCACCCAGAAGGGCUGAGGUAAUACCUCAGCAGGAUAUGGAGUGAAAA [#SharedSequence IExNG# - 5] (puzzle (switch architecture): Inverted Exclusion NG 3) | 0.141 | 0.0643 | – | – |
| GGAGAUACAUGAGGAUCACCCAUGUAGGAUAUCGGGCCCAUAUCCGGCGAAAGCCGGAUAUGGGCCGAGAAGGGCGUACACACC [#LOL-6] (puzzle (switch architecture): Small Loop Exclusion NG 3) | 0.00758 | 0.00868 | – | – |
| GGUACUCAAAGAGUACCAAUACGAACAUGAGGAUCACCCAUGUAGGAUAUGCUACUCAAAGAGUAGCAGAAGGACAUGUGUCUA [jl-ex3-3.01 #GC_VS_GU_SWITCHING] (puzzle (switch architecture): Exclusion NG 3) | 0.0555 | 0.0139 | – | – |
| GUCGGAAACGACAAGUCAGCUCGUGAGGAUAUACAUAAAUUAAAGAUCACAUGAGGAUCACCCAUGUAGAAGGCACGAGCUGAU [#StaticStemDeletion - ENG2/2-A2] (puzzle (switch architecture): Small Loop Exclusion NG 3) | 0.455 | 0.195 | – | – |
| GUGCUUGUCGAAGGAUAUGGUUACAUGAGGAUCACCCAUGUUAUGCUUGGUUACUUGUUUAGUUUCCAGAAGGUCGAUUAGUUG [salish99_ExNG2_001 #Hinge] (puzzle (switch architecture): Exclusion NG 2) | 0.0557 | 0.023 | – | – |
| GGUCGACUUCAAGGAUAUGGACUGCUUUGCAGUCCAGAAGGUGAGGAUCACCCACCUACGGUCAGGUUUCUGACCGAUCGACCU [#AddUracilToBrourdLoops 4 - Jieux - Exclusion NG1] (puzzle (switch architecture): Exclusion NG 1) | 0.00862 | 0.00794 | – | – |
| GCAGCUAAUGCAGGAUAUCAGCACGUGUAGUGCUGAGAAGGGCACAUGAGGAUACCCACUGUGAUCAAUUAAUAUUAAUGCUGC [salish99#hingeEx3_55-58_002] (puzzle (switch architecture): Exclusion NG 1) | 0.0184 | 0.0502 | – | – |
| AGGAGGAAUGUAGGAUAUAUAUAUAUAUAUAGACAAAGUGUAUAUAUAUAUAUAGAAGGACAUGAGGAUCACCCAUGUUUCCCU [#Lowering the energy 13] (puzzle (switch architecture): Small Loop Exclusion NG 1) | 0.00687 | 0.00811 | – | – |
| AGGUAUACUUAGAAGGGCUCCAGCAAAGCUGGAGCAGGAUAUGAGGAUCACCCAUGUCACCUGACGGUCGAAACGACCGUCAGG [#SharedSequence - IExNG1: 9-1] (puzzle (switch architecture): Inverted Exclusion NG 1) | 0.0764 | 0.0228 | – | – |
| AGGUGAGCUCGAUGGCGACAUGAGGAUCACCCAUGUACGAUCAGAAGGGCUCGGGCAAGAAGUGGGCAGGAUAUGGUCGGUGCC [Xeadion] (puzzle (switch architecture): Inverted Exclusion NG 3) | 0.00451 | – | – | – |
| AAAACACAUGAGGAUCACCCAUGUGCAAAAUUCGCAGGAUAUUCCUCAAUUAAAUGAAAGGAAGAAGGGUGAUAAA [Nob's Hobby 32 - Jieux - Same State 1] | – | – | 0.0178 | 0.0502 |
| AGAAAUAAAAGAGAGGAUAUUCAAAAAGGGACAUGAGGAUCACCCAUGUAAAAGAAAAUAAAAUGGGAGAAGGCUCUAAAUAAAG [80%, More Helter Skelter 2] | – | – | 0.0866 | 0.127 |
| GAAAAACAUGAGGAUCACCCAUGUGUAAAUAUGGGAGGAUAUACAAAGACGUAAGUCAAAGUAGAAGGCCUAAAAG [Mat - Same State 1 - Eli mod - D12] | – | – | 0.0299 | 0.0951 |
| AAAAAAAAAAGACAGGAUAUCCAAAAAAAAACAUGAGGAUCACCCAUGUAAAAAAAAAAAAAGUGGGAGAAGGGUCAAAAAAAAAA [Louisiana 4 - Jieux - Same State 2] | – | – | 0.0249 | 0.0384 |
| AAAAAACAUGAGGAUCACCCAUGUAAUACAACAUCAGGAUAUUGAUUUUACUAUGUAUUGCAAGAAGGGAUGAAAA [Same State 1.3a (Same State 1 - Omei 2 )] | – | – | 0.0712 | 0.0452 |
| GAGGACAUAGUACAGGAUAUAUGAAUAGUCACAUGAGGAUCACCCAUGUGCAUUUAUAUGCGCACAUAGAAGGGUGGUAGUUAUC [SameState2 Malc#28] | – | – | 0.155 | 0.067 |
| AAGUCACAUGAGGAUCACCCAUGUCGUAAACGAUGAGGAUAUAGGAAAAAAAAAAAAAAACUAGAAGGUAUAACAA [SameState1-01] | – | – | 0.035 | 0.0385 |
| AAAAAAGAUCUAGAGGAUAUCCGAGUGGUAACAUGAGGAUCACCCAUGUGAAGAAAGGAACAUGAGGAGAAGGCUAGAUCAAAAA [JL Nando Mod 1] | – | – | 0.00787 | 0.0107 |

| Sequence | apparent KD of MS2 coat protein (MS2 coat protein [1]; input ligand: FMN 200 uM) [µM] | apparent KD of MS2 coat protein (MS2 coat protein [1]; input ligand: none) [µM] | apparent KD of MS2 coat protein (MS2 coat protein [2]) [µM] | apparent KD of MS2 coat protein (MS2 coat protein [3]) [µM] |
| --- | --- | --- | --- | --- |
| AGGAAACAUGAGGAUCACCCAUGUAAGAUAAACACAGGAUAUGCGAAAAGAAACAAAGAAGCAGAAGGGUGGAGAA [75%, Ex5 sub 1, 3] | – | – | 0.0194 | 0.0251 |
| AGAAAUAAAGCGAAGGAUAUCCAAACCUAAACAUGAGGAUCACCCAUGUAAAAGAAAAUAAAAUGGGAGAAGGUCGCAAAUAAGA [Designing denovo 14] | – | – | 0.0135 | 0.0228 |
| AAAAAAAAAAGACAGGAUAUACAAUAUAUUACAUGAGGAUCACCCAUGUUUUUUUUUUAAUUAAAGUAGAAGGGUCAAAAAAAAAA [SS 2.1] | – | – | 0.0256 | 0.0303 |
| AAAAAACAUGAGGAUCACCCAUGUAAAAAAAUCGCAGGAUAUACGGUCGCGAAAGCGACCGUAGAAGGGCGAUCCU [Louisiana 3 - Jieux - Same State 1] | – | – | 0.0591 | 0.0753 |
| AAUAAUUAUAUGGAGGAUAUCCGUAAUAAGACAUGAGGAUCACCCAUGUAAUAAGGUUAAAUAAAGGAGAAGGCCAAGGGUGAAA [JR_SS002_Sub004] | – | – | 0.129 | 0.344 |
| UGUCCACAUGAGGAUCACCCAUGUCAGGAGGUGACAGGAUAUUGCGAAAAAAAAAAAAAGCAAGAAGGGUCUGAUU [SameState1-cac1] | – | – | 0.0364 | 0.0984 |
| GGGAGGAAGAGAGAGGAUAUCCAAAGGAAAACAUGAGGAUCACCCAUGUAAAAGGUAGGAAAUUGGGAGAAGGCUCAAGAGAACG [salish99-ss2-056] | – | – | 0.0255 | 0.0289 |
| AAGAAACAUGAGGAUCACCCAUGUAGAAACAUGGGAGGAUAUACAAAGACGAAAGUCAAAGUAGAAGGCCUAAAAA [Mat - Same State 1 - Mod - D165] | – | – | 0.0886 | 0.141 |
| AUUACAUAUAGUUAGGAUAUCAUAUGUAAGACAUGAGGAUCACCCAUGUCCUAAGAAUAGGUAAAUGAGAAGGAACAGUGAGUAU [JR_SS002_Sub419] | – | – | 0.0171 | 0.0239 |
| CGAAAGGAGAGAGAGGAUAUCCAAAGGAAAACAUGAGGAUCACCCAUGUAGAAGGUAGGAGAUUGGGAGAAGGCUCAAGAGAGAU [salish99-ss2-147] | – | – | 0.0321 | 0.0343 |
| AGAAUAAAAAGACAGGAUAUCCAAAAAAAAACAUGAGGAUCACCCAUGUAAAAAAAAUAAAAAUGGGAGAAGGGUCAAAAUAAGA [Mat - Same State 2 - JL mod - D64] | – | – | 0.0199 | 0.0359 |
| AAAUAAAUGACUGAGGAUAUAUCGAUGAGUACAUGAGGAUCACCCAUGUGUUAAUAAAAAGGGUGGUAGAAGGUAGUCAACAAAC [Mod 15 of Pariah 4 by Hyphema in Round 1] | – | – | 0.112 | 0.0512 |
| AUAUAUAUAAGGAAGGAUAUCUUAGAAAAAACAUGAGGAUCACCCAUGUAAAUAAAGAAUAAAUGGGAGAAGGUCCAUAUAUAUA [77%, More Tesla, 10] | – | – | 0.0151 | 0.109 |
| AAAAAAAAAAGUGAGGAUAUGGGAAAAUUAACAUGAGGAUCACCCAUGUGAUAAAAAAAAAAAAACCAGAAGGUACAAAAAAAAA [Original 73%, More Wateronthemoon, 1] | – | – | 0.016 | 0.0423 |
| AAAAAAAAAAGUGAGGAUAUGGGAAAAUUAACAUGAGGAUCACCCAUGUGAUAAAAAAAAAAAAACCAGAAGGUACAAAAAAAAAA [Same 2] | – | – | 0.0261 | 0.035 |
| AAACCACAUGAGGAUCACCCAUGUAAAAAUAUGGGAGGAUAUCGGAAUAAAAUAAAGAAACGAGAAGGCCUAAAAG [59%, Flamingo, 4] | – | – | 0.0693 | 0.292 |
| AAAUAAAUGACUCAGGAUAUAUCAGAGAAAACAUGAGGAUCACCCAUGUAAUAAUAACAUGUGUGGUAGAAGGGAGUCAAUAAAU [LROPPY Same State 2 - v03_deltaG=2.1] | – | – | 0.0135 | 0.0493 |
